Paper PMC3912200, “Structural and Functional Characterization of Cargo-Binding Sites on the μ4-Subunit of Adaptor Protein Complex 4” (PLoS ONE, 2014)

Assays:
[1] = tested on: cytosolic tail of APP; assay: Yeast two-hybrid (Y2H) analysis of μ4 with the APP tail; format: binding; conditions: mutations at μ2-binding site; growth on -His plates, 30°C
From the text: The cloning of the tail of APP (residues 649–695), full-length human μ4, and all the other yeast two-hybrid (Y2H) constructs, and the cloning of the C-terminal domain of μ4 for expression in E. coli was described previously. To generate a construct for mammalian expression, full-length human μ4 was obtained by PCR amplification and cloned into the EcoRI and SalI sites of pEGFP-N1 (BD BiosciencesClontech, Mountain View, CA) including a stop-codon before the GFP coding sequence. The cloning of APP-GFP carrying the double mutation F615P/D664A was described previously. Single amino acid substitutions were introduced using the QuikChange mutagenesis kit (Stratagene, La Jolla, CA). Y2H assays were performed as previously described. A set of pCI-neo (Promega) constructs encoding hemagglutinin (HA)-epitope tagged wild-type or mutants of human μ4 was a generous gift of J. Bonifacino and R. Mattera (Cell Biology and Metabolism Program, NICHD, NIH). The nucleotide sequences of all recombinant constructs were confirmed by dideoxy sequencing.
Figure 1 Yeast two-hybrid analysis of the interaction of μ4 with the cytosolic tail of APP. (A) Superposition of the surface and ribbon representations of human wild-type μ4 C-terminal domain (pdb entry 3L81). The insets show an enlargement of the μ4-binding site and the putative μ2-binding site with residues chosen for the yeast two-hybrid (Y2H) analysis. The APP peptide (TYKFFEQ; stick model) bound to the μ4-binding site is in yellow, and the EGFR peptide (FYRALM; stick model; pdb entry 1BW8) superposed to the putative μ2-binding site is in magenta. (B) Sequence alignment of the C-terminal domain of the μ subunits of known crystal structure depicting critical residues at the corresponding μ2- and μ4-binding sites. Disordered loops are in yellow letters, and arrows and cylinders represent β-strands and α-helices, respectively. M.m., Mus musculus; R.n., Rattus norvegicus; H.s., Homo sapiens. (C) and (D) Yeast were co-transformed with plasmids encoding Gal4bd fused to the cytosolic tail of the amyloid precursor protein (APP) indicated on the left, and Gal4ad fused to wild-type or mutant μ4 constructs indicated on top of each panel. (C) Y2H analysis of μ4 with mutations on the YKFFE binding site (μ4-binding site). (D) Y2H analysis of μ4 with mutations on a putative YXXØ binding site (μ2-binding site). Mouse p53 fused to Gal4bd and SV40 large T antigen (T Ag) fused to Gal4ad were used as controls. Co-transformed cells were spotted onto His-deficient (-His) or His-containing (+His) plates and incubated at 30°C. Growth is indicative of interactions. Some mutations on either of the two sites affect the interaction of μ4 with the cytosolic tail of APP.

[2] = tested on: canonical YXXØ signals; conditions: previous reports; ref [31]; cited from earlier work
From the text: This tyrosine-based signal is related to the YXXØ motif, which is the signal contained in the cytosolic tail of transmembrane proteins that binds to a different site on the μ2 subunit of AP-2 [28], or on the μ3A subunit of AP-3 [30]. In this study, we wanted to determine whether this putative second binding site on μ4, referred here as the μ2-binding site (Figure 1, A and B), played any role in the binding to the YKFFE signal of APP ...

[3] = tested on: APP-GFP; assay: Distribution of APP-GFP in H4 neuroglioma cells; format: cell-based, human; conditions: untagged; 36 h; APP-GFP F615P/D664A; TGN46, EEA1 staining
Method: H4 human neuroglioma or MDA-MB-231 human mammary gland epithelial cells obtained from the American Type Culture Collection (Manassas, VA) were maintained in DMEM (H4) or DMEM/F12 (MDA-MB-231) supplemented with 10% (v/v) fetal bovine serum (FBS), 100 U/ml penicillin and 100 µg/ml streptomycin (Life Technologies). Transfections were carried out using Lipofectamine 2000 (Life Technologies) for 1 h at 37°C in the absence of FBS, and cells were analyzed 16, 24 or up to 36-h after transfection, for which we observed no notorious signs of loss in cell viability. SDS-PAGE, immunoblotting, and immunoprecipitation were performed as described. […]
Indirect immunofluorescence staining of fixed, permeabilized cells was performed as previously described, using sheep polyclonal antibody anti-TGN46 (Serotec), and mouse monoclonal antibody anti-EEA1 (BD Biosciences) or rabbit polyclonal antibody anti-EEA1 (Santa Cruz Biotechnology), followed by the secondary antibodies Alexa-647–conjugated donkey anti-mouse IgG, Alexa-594–conjugated donkey anti-rabbit IgG, or Alexa-594– or -647–conjugated donkey anti-sheep IgG (Life Technologies). […] Quantitative analysis of colocalization was performed as we previously described, with minor modifications. […]

[4] = target: T1, recombinant C-terminal domain of human μ4-D190S (human, UniProt O00189 160-453, D190S); assay: ITC; 28°C, 50 mM Tris-HCl pH 7.4, 150 mM NaCl; chamber 250–500 µM μ4 construct, peptide 2.5–5.0 mM in 16 injections; one-site model; conditions: both partners purified
T1 construct: also called D190S mutant; source: E. coli B834(DE3)pLysS, purified (glutathione-Sepharose 4B, TEV cleavage, Ni-NTA, Superdex 200); not shown: GST, N-terminal, cleaved
T1 sequence (looked up): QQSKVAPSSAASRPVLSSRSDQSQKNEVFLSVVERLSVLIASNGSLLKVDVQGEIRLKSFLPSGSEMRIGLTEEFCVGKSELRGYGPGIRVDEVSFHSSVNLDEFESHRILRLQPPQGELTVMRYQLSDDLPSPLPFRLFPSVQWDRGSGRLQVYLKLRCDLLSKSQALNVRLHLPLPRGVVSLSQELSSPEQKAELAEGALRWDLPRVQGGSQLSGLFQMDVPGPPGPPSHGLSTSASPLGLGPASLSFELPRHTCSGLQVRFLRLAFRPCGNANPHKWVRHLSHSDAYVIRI

B1: D190A: μ4 mutant, μ2-binding site, Y2H construct (protein)
chain: MISQFFILSSKGDPLIYKDFRGDSGGRDVAELFYRKLTGLPGDESPVVMHHHGRHFIHIRHSGLYLVVTTSENVSPFSLLELLSRLATLLGDYCGSLGEGTISRNVALVYELLDEVLDYGYVQTTSTEMLRNFIQTEAVVSKPFSLFDLSSVGLFGAETQQSKVAPSSAASRPVLSSRSDQSQKNEVFLAVVERLSVLIASNGSLLKVDVQGEIRLKSFLPSGSEMRIGLTEEFCVGKSELRGYGPGIRVDEVSFHSSVNLDEFESHRILRLQPPQGELTVMRYQLSDDLPSPLPFRLFPSVQWDRGSGRLQVYLKLRCDLLSKSQALNVRLHLPLPRGVVSLSQELSSPEQKAELAEGALRWDLPRVQGGSQLSGLFQMDVPGPPGPPSHGLSTSASPLGLGPASLSFELPRHTCSGLQVRFLRLAFRPCGNANPHKWVRHLSHSDAYVIRI
modifications: left off: Gal4 activation domain, end not stated, kept
- effect of mutation on interaction of the APP tail with μ4 (Y2H) [1]: abrogated
- interaction of μ4 mutant with canonical YXXØ signals [2]: loss of these interactions

B2: µ4-F255A: untagged full-length μ4-F255A, overexpressed (protein, UniProt O00189 1-453, looked up, variant F255A)
chain: MISQFFILSSKGDPLIYKDFRGDSGGRDVAELFYRKLTGLPGDESPVVMHHHGRHFIHIRHSGLYLVVTTSENVSPFSLLELLSRLATLLGDYCGSLGEGTISRNVALVYELLDEVLDYGYVQTTSTEMLRNFIQTEAVVSKPFSLFDLSSVGLFGAETQQSKVAPSSAASRPVLSSRSDQSQKNEVFLDVVERLSVLIASNGSLLKVDVQGEIRLKSFLPSGSEMRIGLTEEFCVGKSELRGYGPGIRVDEVSAHSSVNLDEFESHRILRLQPPQGELTVMRYQLSDDLPSPLPFRLFPSVQWDRGSGRLQVYLKLRCDLLSKSQALNVRLHLPLPRGVVSLSQELSSPEQKAELAEGALRWDLPRVQGGSQLSGLFQMDVPGPPGPPSHGLSTSASPLGLGPASLSFELPRHTCSGLQVRFLRLAFRPCGNANPHKWVRHLSHSDAYVIRI
modifications: full-length
notes: untagged full-length μ4-F255A, overexpressed
- APP redistribution (figure title) [3]: APP redistributes from endosomes to the TGN

B3: APP peptide ENPTYKFFEQ (peptide)
peptide: ENPTYKFFEQ
notes: amyloid precursor protein (APP), stretch of the cytosolic tail with the YKFFE signal (Y687 to Q692 printed); numbers count on: APP695; also called APP sorting signal; source: synthetic peptide (New England Peptide)
- binding result [4]: binds
